According to a protein production outcome set (Wang et al. 2014):

Experiment: label from the status in PepcDB records
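Further: failed if final PepcDB status was selected cloned or expressed and not failed if soluble or beyond.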

| Sequence | protein production |
| --- | --- |
| MNTEAEQQLLHHARNGNAEEVRKLLEAMARAEVVADIDCKGRSKSNLGWTPLHLACYFGHKQVVQDLLKAGAKVNMLNDMGDTPLHRAAFTGRKELVMLLLEYNADTTVVNGSGQTAKEATHDKEIRQMLEAVERTQQRKLEELLLGAAREGRTAEVSALLSRPNPPDVNCSDQLGNTPLHCAAYRAHKQCVLKLLRSGADPSLKNKNDQKPLDLAHGTEMKHILVGNKVVHKALKRFEGPLWKSSRFFGWKLFWVVLEHGVLSWYRKQPDAVHNSYRQGCKHLTQAVCTVKPTDGCLFSVRCFDDTVHGFRVPKNSLQQSREKWLEAIEEHSAYSTHYCSQDQVTDDEEEDVASAMDLKESLARAQTCQQRLDREIYNFLKMIKECDVAKDMLPSFLQKADVLSEASRETCVALSDCLNLFTKQEGVRNFKLEQEQEKNKILSEALETLATEHHELERSLVEGSPPVSILSEDEFYDALSGSESEGSLTCLEAVTARAFEENEVPANSGKHRMSEGKDCGGGDALSNGIKKHRTSLPSPMFSRNDFSIWSILRKCIGMELSKITMPVIFNEPLSFLQRLTEYMEHTYLIHKASSFSDPVERMQCVAAFAVSAVASQWERTGKPFNPLLGETYELVRDDLGFRLISEQVSHHPPISAFHAEGLNNDFIFHGSIYPKLKFWGKSVEAEPKGTITLELLEHNEAYTWTNPTCCVHNIIVGKLWIEQYGNVEIINHKTGDKCVLNFKPCGLFGKELHKVEGYIQDKSKKKLCALYGKWTECLYSVDPATFDAYKKNDKKNTEEKKTSKQASTSEESDEMPVPDSESVFVIPGSALLWRIAPRPPNSAQMYNFTSFAMVLNEVDKEMETVIPKTDCRLRPDIRAMENGEIDQASEEKKRLEEKQRAARKNRSKSEEDWKTRWFHQGPNPYSGAQDWIYSGSYWDRNYFNLPDIY | failed |
| MKFLRLLKHPASTAPGRAFQLYPWQERIVRAIYGPRHPDGSRIVKTVFLLVPRGNRKTSLAAALALLHTLGPERVPAGQVIFAACDREQAGIGFREAANIIRADKRLVAATRIYDAHNSAKKIVFRAEDVTLSAISSDGGAQHGRTPAFTLIDELHAWKGRDLWEALKSGTAKVADSLTVIATTAGRGADTVAAEQYAYALAVARGEIVNPAFLPILFAPEPGDDWTDEATWHKVNPGLRHGFPSLEGLRTLAKEAEGRPSDAYAFRQFNLNEWMANSRDPLFDFDTYDARRFAEDLDELEGLPCWIGVDLSISGDLSAVVAAWKHPDGQISVKPWFWVPGDDLKVRADRDGVPYERWRDEGHLIATPGAIIDQSAVADQIRELCARFDAQEVAFDPHLARPMMQSLYDEGLPVVEMRQAPLTMGVAAGDLERVVNGRLIRHDGHPVLRNHLQNVCASRSESGLIRMHKVQRTSRIDGAVAAAMAVSRAVAADSRKSAYSDPEAEGLFVF | failed |
| MLKERLKAFFSADSVFTLIFALFFLTSFKKPLTQVLLIVLMVFLFFRCYFQASLKETFAINHLKTMSFKWLTLAFLGVFLSIFPNMFNMHDSQTFRYNLFALNMSLTYACGALCLLFASCLRIKLNQKILFYSMAVANFINGLLSLVQKIYFNMPRAQGFSTVKEYVVLVSVSILGCYIYALYSHNQKEKLFFTLSVFVGFLVVILSATRSATIAFVITFLILSCFILYAKKSLKPLGYMVVVSLILSALYVGSNALEKKGAIEQSRVQNQSFEEDLKRYAKKDADSSIGWRLERWKEALTVLRLRPFFGMAASEKCQRLEEILSLSKSYRAKDLILCYERYDNQIIHILATRGIIGFLIWLFFLLVIVKIFWSGIKQNSLISFFILMTLAFYLIFGIGFDPFDFFITGSFFVGMIMMAVFLKKDKSAF | failed |
| MGRKQLNHIKCRENCSLVAKAGFRHRRVIIQGIQSAMVQDSDEILFVEEEDPVAGSLPSDVSPWKVLVADDDPEVFTVTRLVLSGFVFAGRGVSLLYAGSAAEATEILRQQSDIAVALLDVVMETEDAGLKLVKVIRDDLGNSHLRIVLRTGQPGQAPEHDVVMRYDINDYRSKTELTDTKLITTLVSSLRSYQQIEALERSRAELREARDTLEIRVAERTRDLRESEARLRSILDASVFPILVLSEEGDRVRFLNDHAGEALGWALLENTTSTLPDLWENPVDGARLLARTVQRGRVLDCEFRLRGAGGEPFWALVSTIAMSYDGQPAVLLSFNDITVHKQREEAWQRLALTDPLTGLGNRRLLFDRGILEVARARRGCWPLSGLMIDLDHFKRINDTQGHAAGDAILRTLADTLRESLREIDVIARVGGEEFAILLPDTSLTAAHEVGERLRLSCQIPQPVGGPVTISVGISTLHPEDRGLGDMLSRADDALYRAKRNGRDRVEIADDSEDNQDVSP | failed |
| MIAISSLLGLVVRSFYFLLPDYRAADTWFHASKVKMIISTGTVYFSHVPGYFSAQIIKYPPGYHALIALLSGFKGENIIYGMNSLRIFEILYLPALAYLVGREIRREIGIFAALLTNFSALYYYFVQYALLPAFTNYMIFLLSVYFLEVAMRDRGIKISIMLGITSGIMAVVHPYQYILFQATAFFTTILSKNRKVFLTQLILSASVFLVFTPFSTEYAVKGILMNPRFSNKDNPNFLISILRYSFVDNGQILFGLSLILALILSLMRGGSIEKGLSLSFLLIIFMMLDKTYLNIRIPYLSAVWNSERAFMLTTPLIPILEGIGLNYIFKVKKELAAIFLVVGMMISYPYLRIEHLASESSYLLDPEVVDFIKEVSRIAGNETVMTACEFDSGRWIPILTETPIVCYSKNISEARYLYVDTRGAGEIEVYPINIVNFLDRRVVLFRDGLWLLDLNKHGKPTGDVLSYYHTNGTISYIKDTKWFVYGWVNKNYATMKLRLKGFPYAIMIVNTSSILFSTSESFDRIEIRISGKKGRALEIYLDGEFIKRYEFKTEYGDERIVLKVRVDPGMHYLILYSPNTTYKIPIGVKEIMLKREGP | failed |
| QHDSSRKLGLLQEMIGGGWWRYWAEQELFELAPALHDSLGLTGEYRRVPLEHLQGLLQPADADELGLRLRASLRSGQALAQDLCLRQPDSRGERRWLRIEGRPLGRGSALGLSGVLLDISEGRRQEER | failed |
| MMTKYGVVGTGYFGAELARFMSKVEGAKITAIYDPVNAAPIAKELNCVATATMEALCSHPDVDCVIIASPNYLHKAPVIAAAKAGKHVFCEKPIALNYQDCKDMVDACKEAGVTFMAGHVMNFFHGVRHAKALIKAGEIGEVTQVHTKRNGFEDVQDEISWKKIRAKSGGHLYHHIHELDCTLFIMDETPSLVSMAAGNVAHKGEKFGDEDDVVLITLEFESGRFATLQWGSSFHYPEHYVLIEGTTGAILIDMQNTAGYLIKAGKKTHFLVHESQAEDDDRRNGNISSEMDGAIAYGKPGKRTPMWLSSIMKLEMQYLHDVINGLEPGEEFAKLLTGEAATNAIATADAATLSSNEGRKVKLTEILGLEHHHHHH | not failed |
| MQEISAYTLIKEKLQAIPNLRHKGILFEKISKQFLQEHDSANEYESIDLWYDWKLRGNERDKGIDIVITTFKQRIHRCAMQIPSK | failed |
| TFEEDDNMERAAVTGIAFDKNQARINVRGVPDKPGVAYQILGAVADANIEVDMIIQNVGSEGTTDFSFTVPRGDYKQTLEILSERQDSIGAASIDGDDTVCKVSAVGLGMRSHVGVAAKIFRTLAEEGINIQMISTSEIKVSVLIDEKYMELATRVLHKAFNLG | not failed |
| MTISEVSKKYELSADTLRYYERIGLIPPVNRNKSGIRSFTEEDCEWVNFIKCMRGAGLSIETLIEYVAMFQQGSSTIKARKELLIEQRNQLAKRIEEMQKTLERLNFKIDRYEEGIIEKEKVLKSSRNKKMEAVS | failed |
| VVEFTTCPDKPGIPVKPSVKGKIHSHSFKITWDPPKDNGGATINKYVVEMAEGSNGNKWEMIYSGATREHLCDRLNPGCFYRLRVYCISDGGQSAVSESLLVQTPAV | not failed |
| MLFSSASFVPIVRRMSRPTILPAYILATLPLVMALLATAVSIGTGDEVVNFFRQYRQAHPALTACMQVITDFGNPLLYLVYGAIFFRARKRGDRHDMRFVAVYIVVQLLVSFLAVRILKIGFGMPRPGTEGPAIPFSFKGVYNSFPSGHTTEIVGAVVPLAWRCKALLPTLALGIYMGIVGYSRIYLGMHHITDVFAGLLLGSVAAWIIHRLADRTPS | failed |
| MAPLDSKSAGGEPGVWKSGRGRGRRLPKGRVYSDEALAAVRGVLGDRPRRRDLLIEFLHLIQDVYGHLSADHLAALAFEMKLGQAEVYETATFYAHFDVVKEGETPPPALTIRVCDSLSCALAGAEQLRAALEEGLDPGQVRVLRAPCMGRCDTAPVLELGHNHIDHATPEKVRAAIAAGDTHAHLPDYEGFDAYAAAGGYAVLKGLRAGGDWEAVQDSVLAAGLRGLGGAGFPSGRKWGFVRANPGPRYLAVNGDEGEPGTFKDRYYLERVPHLFLEGMLIAAWAVEAETCYIYMRDEYPAVLEILRREIAALEAAGIVAKGYIDLRRGAGAYICGEESAMIESIEGKRGLPRHRPPFVAQVGLFGRPTLVHNIETLHWVARVCREGPEVLNSIEKNGRKGLRSYSVSGRVARPGVHLLPAGSTIRDVIAAAGGMAAGHVFKAYQPGGPSSGLLPASMDDIPLDFDTLQPHGSFIGSAAVVVLSQQDSARDAALNMLRFFEDESCGQCTPCRAGCEKAVKLMQAEHWDQPLLEELCQVMADASICGLGQAAPNPIRLTMKHFAEEI | failed |
| MMTDEARAKLAAIPMLAGYTGPLERLGGLTNLVFRAGDLCLRIPGKGTEEYINRANEAVAAREAAKAGVSPEVLHVDPATGVMVTRYIAGAQTMSPEKFKTRPGSPARAGEAFRKLHGSGAVFPFRFELFAMIDDYLKVLSTKNVTLPAGYHDVVREAGGVRSALAAHPLPLAACHCDPLCENFLDTGERMWIVDWEYSGMNDPLWDLGDLSVEGKFNANQDEELMRAYFGGEARPAERGRVVIYKAMCDLLWTLWGLIQLANDNPVDDFRAYADGRFARCKALMETPEFSRHLAAVRMG | not failed |
| MKQMSITLIFIMAFTIIIHAVETSSYSIRLAGVRLKKIAVALSVVGMVLLISRTSNLLQAFLIGGIVDEAKLDSSIDLEHIIRLVLLSASIGTLLAIILYPTLTKLFGYVIQNFETDGSFIRMMKTNNIQKLKYTKKYVRFPKLEMIHRLRIGGIPKRIMLINMFATAIYTAGVLSALYASFLNPDYATNASTASGLVNGFATILLTVLLDPRIALLTERALQSENGAESMSKMYGWLMISRLFGTLLAQLLFVPGAYWILWIIELIH | failed |
| MKKIAVFADVQNLYYTVRQAYGCHFNYAALWADISKRGEIVHAFAYAIDRGDSKQQQFQQILRNLGFTVRLKPYIQRSDGSAKGEWDVGITIDIMDFAPQVDEVVLASGDGDFDMLLDRVISKHGVEAVAYGVPGLTANSLIRAASRYVPIEGALLLK | not failed |
| MMPNRNTNMLLAYKRLPNWTANSIPETLLNPHNTKVGTWEQLTVLSGKLDVYFFDKDDHVLEKLTFDKDSQMPFIQPQVCYKIEPASNDLECHLTLYCQKGDYFNKKYGMTKTHSEVLFSAPYLKENSKILDLGSGQGRNSLYLTMLGHDVTSVDTNEQSLIHLKNIANEENLPSKINWYDINTANLQETYDFILSTVVFMFLNRPVVPDIIKDMQKHTAIGGYNLIVCAMDTKSYPCPIPFPFTFKKGELKDYYKEWYLIKYNEDLGQLHKTDANGNRLQMQFATLLAKKVK | failed |
| MSLQTLLFSFQGRIGRQAFWLWNICYYAMIAGFAMGSNLLFPDVAHLILPVFLLVVLVPDLAITAKRWHDRDKSSWWLLLNVPLVIGRMTIPAGELAVNTQPGMLETLISFVALLCGAWILVECGFLSGTDGSNRFGAEPKWIKKS | failed |
| MSRPDDIDVRPIAEAETADWIRALNTGFLRSPEVSEREVADRSSYLVPARTLGAFDNGRCVATFRSFPQELTAVGGASVPADAISNVTVTATHRRRGLLTRMMAQDLAAAKERGDVVATLIAAEYPIYGRYGFGAATHSTEWTID | failed |
| RAKLMEERETSLKDSVEVAFDAVRLIANNPNLSEAEAKQQVKAVLTNIRYGSDGYFFAYDAQGTNLVHPIQPELVGQNLWQLQDERGDFLIQ | failed |
